From paper PMC1948075 (The EMBO Journal, 2007)
Ends that are not written are not given here.

Molecular target: T1, GST-IgFLNa21 (amino acids 2236–2329) (human, UniProt P21333 2236-2329)
T1 sequence (looked up): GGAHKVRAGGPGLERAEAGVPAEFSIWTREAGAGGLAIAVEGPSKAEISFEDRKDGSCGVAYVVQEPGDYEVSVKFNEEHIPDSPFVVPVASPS
Assay: pull-down

B1: recombinant His-tagged integrin β7 cytoplasmic tail model protein (domain or fragment, UniProt P26010 747-798, looked up)
chain: RLSVEIYDRREYSRFEKEQQQLNWKQDSNPLYKSAITTTINPRFQEADSPTL
modifications: also: His-tagged, tag place not given here
- Kd: 700 ± 100 nM
